Experimental data from the supplement of paper PMC12667976.
± gives the standard error.

B1: library; numbered along this chain (parent)
chain: MATDAALRRLLRLHRTEIAVAVDSAFPLLHALADHDVVPEDKFQETLHLKEKEGCPQAFHALLSWLLTQDSTAILDFWRVLFKDYNLERYGRLQPILDSFPKDVDLSQPRKGRKPPAVPKALVPPPRLPTKRKASEEARAAAPAALTPRGTASPGSQLKAKPPKKPESSAEQQRLPLGNGIQTMSASVQRAVAMSSGDVPGARGAVEGILIQQVFESGGSKKCIQVGGEFYTPSKFEDSGSGKNKARSSSGPKPLVRAKGAQGAAPGGGEARLGQQGSVPAPLALPSDPQLHQKNEDECAVCRDGGELICCDGCPRAFHLACLSPPLREIPSGTWRCSSCLQATVQEVQPRAEEPRPQEPPVETPLPPGLRSAGEEVRGPPGEPLAGMDTTLVYKHLPAPPSAAPLPGLDSSALHPLLCVGPEGQQNLAPGARCGVCGDGTDVLRCTHCAAAFHWRCHFPAGTSRPGTGLRCRSCSGDVTPAPVEGVLAPSPARLAPGPAKDDTASHEPALHRDDLESLLSEHTFDGILQWAIQSMARPAAPFPS

Variants of: B1
Assay: AIRE transcriptional activation functional score (insulin promoter-GFP; nonsense median 0, synonymous median 1) (normalised score); higher = higher AIRE activity (more reporter activation)
Details: with insulin promoter-GFP reporter in HEK293
Experimental: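 Deep mutational scan of full-length human AIRE (codon-optimized cDNA, DT-POPCode NNN libraries over three regions) integrated at a Bxb1 landing pad in HEK293 cells carrying an insulin core promoter-GFP reporter at a Flp-In site. Cells were sorted for the top 10% GFP about 14 days after transfection. Variant frequency log-ratios (select vs non-select, TileSeq) were rescaled so that the nonsense median is 0 and the synonymous median is 1, then averaged over biological replicates.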

Variant | AIRE transcriptional activation functional score
E171F | 2.29 ± 0.26
P544R | 0.52 ± 0.21
P544F | 0.586 ± 0.11
Q189E | 1.01 ± 0.23
S220V | 0.743 ± 0.84
A496K | 0.412 ± 0.094
D4R | -0.235 ± 0.59
D4Q | -3.53 ± 0.6
T183C | 1.48 ± 0.11
T183M | 0.663 ± 0.087
S187T | 1.17 ± 0.14
R149K | 0.675 ± 0.64
R149D | 1.12 ± 0.18
A73R | 1.26 ± 0.79
A145L | 1.19 ± 0.45
A202D | 0.687 ± 0.19
A540C | 1.37 ± 0.19
S248N | 0.778 ± 0.22
S518F | 1.2 ± 0.074
S518R | 0.342 ± 0.031
S518L | 1.04 ± 0.13
G313D | 1.39 ± 0.29
G313V | 1.22 ± 0.2
C434R | 0.0925 ± 0.12

Variant | AIRE transcriptional activation functional score
C434Y | 0.0941 ± 0.11
T16M | 0.203 ± 0.12
I209M | 0.79 ± 0.098
L66A | 0.62 ± 0.47
Q276E | 0.831 ± 0.28
G305D | 1.1 ± 0.17
S24G | 0.358 ± 0.26
A258Q | 0.586 ± 0.085
Q108Y | 1.24 ± 0.12
G251Q | 0.448 ± 0.19
F43L | 0.0431 ± 0.38
F43T | -0.219 ± 0.5
R92V | -0.0193 ± 0.75
A413F | 0.975 ± 0.14
A413I | 1.34 ± 0.27
P367N | 0.956 ± 0.17
P539W | 0.719 ± 0.068
P539R | 0.158 ± 0.18
E508L | 0.506 ± 0.33
L511Q | 0.142 ± 0.15
L511M | 0.699 ± 0.14
L75P | -0.233 ± 0.32
I533E | -0.386 ± 0.17
C437T | 0.164 ± 0.18

Variant | AIRE transcriptional activation functional score
L520Q | 0.36 ± 0.14
I309W | 1.55 ± 0.017
Y85I | 0.794 ± 0.18
L392T | 0.53 ± 0.1
G204C | 0.575 ± 0.088
P254W | 1.07 ± 0.05
G382W | 1.38 ± 0.038
P289E | 0.531 ± 0.046
E383K | 0.473 ± 0.18
E383V | 1.13 ± 0.23
G369I | 1.18 ± 0.37
A451R | 1.19 ± 0.44
K294H | 0.554 ± 0.27
Q349K | 1.06 ± 0.14
P124Y | 1.81 ± 0.44
A532K | -0.0221 ± 0.22
P233K | 0.232 ± 0.13
T232A | 0.926 ± 0.13
T232K | 1.16 ± 0.13
C475I | 0.147 ± 0.15
S241E | 1.29 ± 0.38
E347G | 1.17 ± 0.13
E347T | 1.26 ± 0.18
E347D | 1.21 ± 0.29

Variant | AIRE transcriptional activation functional score
S506L | 0.875 ± 0.13
P381F | 1.15 ± 0.23
P381M | 1.06 ± 0.044
G477V | 1.13 ± 0.3
S217T | 0.908 ± 0.26
L175R | 1.06 ± 0.47
H319I | 0.263 ± 0.18
G178C | 1.22 ± 0.6
E51N | -2.61 ± 0.17
E237P | 0.729 ± 0.18
T334N | 0.91 ± 0.15
L87A | 0.0518 ± 0.52
G408C | 1.01 ± 0.17
G54F | -0.19 ± 0.42
S250C | 1.23 ± 0.098
S250H | 0.963 ± 0.23
Q44W | 0.23 ± 0.49
E375I | 1.08 ± 0.42
L341P | 0.971 ± 0.16
L341N | 1.02 ± 0.053
Q290L | 0.646 ± 0.18
H512S | 0.923 ± 0.21
R203H | 0.141 ± 0.1
R203Y | 0.581 ± 0.13

Variant | AIRE transcriptional activation functional score
N427M | 1.81 ± 0.08
N295G | 0.969 ± 0.24
R139V | 0.965 ± 0.42
R79H | 1.25 ± 0.16
A140Y | 1.38 ± 0.29
A140L | 1.13 ± 0.7
V443H | 1.16 ± 0.069
V443L | 0.596 ± 0.25
A193R | 0.93 ± 0.27
P326R | 1.17 ± 0.13
L210E | -0.0363 ± 0.075
P401G | 1.14 ± 0.17
A33N | 1.58 ± 0.065
N244A | 0.269 ± 0.054
S411C | 1.45 ± 0.089
K114P | 0.1 ± 0.84
P492F | 1.04 ± 0.26
E307V | 1.2 ± 0.19
E307W | 0.599 ± 0.092
R371G | 1.55 ± 0.068
T344P | 1.07 ± 0.27
T344G | 1.16 ± 0.29
T344E | 0.714 ± 0.21
C472V | 0.0438 ± 0.1

Variant | AIRE transcriptional activation functional score
C472M | -0.0949 ± 0.19
E354I | 1.13 ± 0.16
G438A | 1.21 ± 0.32
K161W | 0.29 ± 0.037
K161Q | 0.799 ± 0.26
K161V | 1.11 ± 0.33
L323C | 0.656 ± 0.52
K222A | 0.955 ± 0.42
K222R | 1.05 ± 0.2
T151V | 1.5 ± 0.29
F230T | 0.761 ± 0.38
D84Q | 0.343 ± 0.5
D478F | 0.799 ± 0.11
P162S | 0.476 ± 0.69
P162M | 0.548 ± 0.41
S278I | 1.04 ± 0.18
L414C | 0.792 ± 0.16
E485A | 0.466 ± 0.38
F82G | 0.401 ± 0.45
P266Q | 0.916 ± 0.05
R89Q | 0.475 ± 0.15
C340L | 1.13 ± 0.11
C340T | 1.71 ± 0.15
C340K | 1.62 ± 0.11

Variant | AIRE transcriptional activation functional score
G306K | 0.811 ± 0.29
E270F | 0.977 ± 0.13
E270Y | 1.38 ± 0.056
A152M | 1.86 ± 0.072
A541Y | 0.977 ± 0.18
A541Q | 1.05 ± 0.076
A25G | 0.475 ± 0.28
A452R | 0.86 ± 0.35
Q262Y | 1.05 ± 0.11
L106E | 0.17 ± 0.11
S135C | 0.747 ± 0.12
S135D | 1.56 ± 0.28
T391R | 1.15 ± 0.23
T391Q | 0.725 ± 0.055
T391A | 1.09 ± 0.15
K259Q | 0.922 ± 0.061
P380Y | 1.42 ± 0.14
A482V | 1.23 ± 0.32
H458I | -0.227 ± 0.19
H458G | 0.842 ± 0.14
Q182P | 0.264 ± 0.28
L320Q | 0.88 ± 0.27
P542N | -0.142 ± 0.32
